In patent publication US5919790A, “Hydroxamate inhibitors of interleukin-1β converting enzyme” (Warner-Lambert Company, priority 1997, dated 1999):

Substrate: CC(=O)N[C@@H](Cc1ccc(O)cc1)C(=O)N[C@H](C(=O)N[C@@H](C)C(=O)N[C@@H](CC(=O)O)C(=O)Nc1ccc2c(C)cc(=O)oc2c1)C(C)C
Experiment: ICE inhibition, Ki, fluorescence assay with Ac-Tyr-Val-Ala-Asp-AMC
Type: biochemical
Conditions: other: substrate of ICE, HGDE buffer
Procedure: Substrate hydrolysis is monitored for 300 seconds by observing the fluorescence of released AMC using excitation at 380 nm and emission at 460 nm. Mean rates of substrate hydrolysis are evaluated by linear-regression analysis of the fluorescence vs time traces. […] ICE Colorimetric Dose-Response (IC50) Assay

B1: ICE (interleukin-1β converting enzyme) (Homo sapiens) (protein)
chain 1: NPAMPTSSGSEGNVKLCSLEEAQRIWKQKSAEIYPIMDKSSRTRLALIICNEEFDSIPRRTGAEVDITGMTMLLQNLGYSVDVKKNLTASDMTTELEAFAHRPEHKTSDSTFLVFMSHGIREGICGKKHSEQVPDILQLNAIFNMLNTKNCPSLKDKPKVIIIQACRGDSPGVVWFKD
chain 2: AIKKAHIEKDFIAFCSSTPDNVSWRHPTMGSVFIGRLIEHMQEYACSCDVEEIFRKVRFSFEQPDGRAQMPTTERVTLTRCFYLFPGH
For B1, the Km was 15 µM.
